Source: patent US12624123B2, “Compositions and methods for reducing off-target toxicity of antibody drug conjugates” (The Research Foundation for The State University of New York, priority 2019, dated 2026)
“Also recorded” adds a separate entry of the source.

What was measured:
[1] = tested on: 8C2 mAb; experiment: Competitive ELISA of 8C2 with topotecan and SN38 (BSA-topotecan coated); format: binding, murine; conditions: 8C2 held constant at 10 nM; read-out: IC50 in competitive ELISA vs intact 8C2
Procedure: A competitive ELISA was employed to determine the affinity of intact 8C2 mAb for SN38 and topotecan. A BSA-topotecan conjugate was synthesized and immobilized as previously described (Shah et al., Int J Pharm. 2014; 465(1-2):228-238. doi:10.1016/j.ijpharm.2014.01.038) 8C2 concentration was held constant at 10 nM with increasing concentrations of topotecan or SN38. 8C2 drug samples were incubated for 2 hours at room temperature with agitation. Following incubation, wells were washed three times with 250 μL of PBS-T and three times with dH2O. Wells were then incubated with a 1:500 dilution anti-mouse AP conjugate secondary in PBS-T with 3% BSA for 1 h. After washing, 250 μL of 4 mg/ml PNPP in diethanolamine buffer pH 9.8 with absorbance being read at 405 nm. The change in absorbance over time data was fit to a four-parameter function in GraphPad Prism 7.

[2] = tested on: LS174T cells; experiment: Competitive cell cytotoxicity assay with LS174T cells; format: cell-based
Procedure: Log-phase MOLM-14, Ramos (RA 1), HT-29, LS174T, or NCI-N87 cells were seeded in 96-well microtiter plates at a density of 20,000 cells/well, 20,000 cells/well, 5,000 cells/well, 5,000 cells/well, and 10,000 cells/well, respectively, in 100 μL of culture medium. HT-29, LS174T, and NCI-N87 cells were allowed to adhere for 24 h before cell culture media was aspirated and replaced with 100 μL of fresh media containing a range of treatment for, 48 (LS174T), 96 (NCI-N87), or 120 (HT-29) h. MOLM-14 and Ramos cells were re-suspended with treatment solutions, where 100 μL of cell-treatment suspension was aliquoted into wells of a 96-well plate for 24 h. Treatment solutions consisted of calicheamicin, MMAE, topotecan, or SN38 with or without immunized animal plasma, purified anti-drug antibody, or antibody-drug conjugate (ADC) with or without plasma or anti-drug antibody. For MOLM-14 and Ramos cells, 25 μL of MTT solution (5 mg/mL in pH 7.4 1× PBS) was added directly to wells following treatment incubation. For adherent cells, treatment media was aspirated from wells and cells were washed three times with 100 μL of fresh media. Following the final wash, 100 μL of complete media and 25 μL of MTT solution were added to each well. Cells were incubated for 4 h in order to allow cells to reduce MTT to formazan dye. […] Formazan dye was measured at 570 nm and normalized by cell debris at 690 nm.

[3] = tested on: Trastuzumab deruxtecan; experiment: Indirect ELISA of purified sdAb on trastuzumab deruxtecan; format: binding
Description: FIG. 16. SDS-PAGE and Indirect ELISA.
FIG. 18. SDS-PAGE and Indirect ELISA.

[4] = SPR dissociation screening on DM1-Biotin chip; format: binding; conditions: 20 min dissociation phase
Procedure: Preliminary screening of DM1/4 binders were performed using a neutravidin SPR chip with DM1-Biotin on the left channel. Phagemid purified sdAbs were flowed over the SPR chip for 2 minutes at a flow rate of 25 ul/min. After binding, sdAb was dissociated for 20 minutes. Observed sensorgrams were fit to an individual dissociation rate constant for each construct. Equilibrium and kinetic binding of 3A2 was assessed using a CM5 SPR chip with TDM1 immobilized on the left channel. […] Rate constants for 3A2-TDM1 association and dissociation were obtained through fitting of the observed sensorgrams for the 1.25, 2.5, 5, 7.5 and 10 nM injections to a 1:1 Langmuir binding model.

[5] = tested on: Ramos cells; experiment: MTT cytotoxicity of calicheamicin on Ramos cells; format: cell-based; conditions: 24 h
Procedure: (§1) Log-phase MOLM-14, Ramos (RA 1), HT-29, LS174T, or NCI-N87 cells were seeded in 96-well microtiter plates at a density of 20,000 cells/well, 20,000 cells/well, 5,000 cells/well, 5,000 cells/well, and 10,000 cells/well, respectively, in 100 μL of culture medium. HT-29, LS174T, and NCI-N87 cells were allowed to adhere for 24 h before cell culture media was aspirated and replaced with 100 μL of fresh media containing a range of treatment for, 48 (LS174T), 96 (NCI-N87), or 120 (HT-29) h. MOLM-14 and Ramos cells were re-suspended with treatment solutions, where 100 μL of cell-treatment suspension was aliquoted into wells of a 96-well plate for 24 h. Treatment solutions consisted of calicheamicin, MMAE, topotecan, or SN38 with or without immunized animal plasma, purified anti-drug antibody, or antibody-drug conjugate (ADC) with or without plasma or anti-drug antibody. For MOLM-14 and Ramos cells, 25 μL of MTT solution (5 mg/mL in pH 7.4 1× PBS) was added directly to wells following treatment incubation. For adherent cells, treatment media was aspirated from wells and cells were washed three times with 100 μL of fresh media. Following the final wash, 100 μL of complete media and 25 μL of MTT solution were added to each well. Cells were incubated for 4 h in order to allow cells to reduce MTT to formazan dye. Once MTT was reduced, 100 μL of 10% SDS prepared in 0.01 M HCl was added to each well and incubated overnight to solubilize the formazan crystals. Formazan dye was measured at 570 nm and normalized by cell debris at 690 nm.
(§2) Fresh media containing a range of treatment were pre-incubated with or without 100 μM purified sdAb at room temperature for 30 minutes. Log-phase MOLM-14 cells were seeded in 96-well microtiter plates at a density of 20,000 cells/well, and were re-suspended with treatment solutions, where 100 μL of cell-treatment suspension was aliquoted into wells of a 96-well plate for 24 h. 25 μL of MTT solution (5 mg/mL in pH 7.4 1× PBS) was added directly to wells following treatment incubation. […] Formazan dye was measured at 570 nm and normalized by cell debris at 690 nm.

[6] = sdAb CG4 ELISA and Dynabeads binding assay; conditions: for actual fold reduction considering background: 10 μM calicheamicin
Procedure: Nunc Maxisorp 96-well plates were coated with 4 μg/ml Cetuximab or Cetuximab-calicheamicin, or 5 μg/ml Avidin. Plates were washed three times with PBST and three times with dH2O, and blocked with MPBS for 2 h at RT. For the Avidin coated plates, plates were washed three times with PBST and incubated with 1 μM Biotin-Calicheamcin. Plates were then washed three times with PBST and incubated with increasing concentration of purified sdAb CG4 (G4 from FIG. 25) at RT for 2 h, with or without pre-incubation with free Calicheamicin at 10 μM. Plates were then washed three times with PBST, where bound sdAb was detected using an anti-His tag HRP-conjugated Ab diluted 1:1000 in MPBST. Following incubated and five washed with PBST, 100 μL of 1-Step Turbo TMB-ELISA solution was added to each well and incubated for 30 minutes. The reaction was quenched by adding 100 μL of Stop solution to each well and absorbance was measured at 450 nm. Alternatively, wells can also be incubated with 1:1000 diluted anti-His tag AP-conjugated Ab, instead of HRP conjugated Ab. After washing, 4 mg/ml PNPP in diethanolamine buffer pH 9.8 with absorbance being read at 405 nm.
Calicheamicin conjugated dynabeads were washed with PBST and blocked with MPBS for 30 min. Beads were washed three times with PBST and incubated with sdAb for 30 minutes. Bound sdAb were detected with 1:1000 diluted anti-His tag HRP-conjugated Ab. After washed with PBST, beads were resuspended with 500 μL of 1-Step Turbo TMB-ELISA solution and incubated for 30 minutes. The reaction was quenched by adding Stop solution, and absorbance was measured at 450 nm.

[7] = Screening of llama sdAb phage clones against calicheamicin conjugates (FIG. 25); format: binding
Procedure: A master plate was generated by inoculating a single colony into wells of a 96-well round-bottom culture plate filled with […] 2×TY supplemented with 100 μg/mL ampicillin, 2% (wt/vol) glucose and 10% (vol/vol) glycerol, and grown overnight at 37° C. These wells were then used to inoculate wells of 96-deepwell plates containing 1 mL of 2×TY medium (100 μg/mL ampicillin+0.1% (wt/v) glucose per well). Plates were incubated them for 3 h at 37° C. and 250 rpm until OD600≈0.5. Nanobody expression was induced with 4 μL of 0.5 M IPTG per well (final concentration of 2 mM) and incubated for an additional 15-24 h at 37° C. and 250 rpm. Nunc Maxisorp 96-well plates were coated as described previously. Plates were washed three times with PBST and blocked with MPBS for 2 h at RT. […] Plates were then washed three times with PBST, where bound phage was detected using an anti-HA tag HRP-conjugated Ab diluted 1:1000 in PBST. Following incubated and five washed with PBST, 100 μL of 1-Step Turbo TMB-ELISA solution was added to each well and incubated for 30 minutes. The reaction was quenched by adding 100 μL of Stop solution to each well and absorbance was measured at 450 nm.
50 μl Dynabeads-calicheamicin were blocked with MPBS (PBS+2% non-fat dry milk) at RT for 30 minutes. Following pre-incubation with 1:50 preimmunized llama plasma, phage solutions were incubated with beads at RT for 30 minutes. […]

[8] = tested on: MOLM-14 cells; experiment: MTT cytotoxicity of calicheamicin on MOLM-14 cells; format: cell-based, human; conditions: 24 h, 100 μM peptide or sdAb
Procedure: as §1, §2

## CC[C@@]1(O)C(=O)OCc2c1cc1n(c2=O)Cc2cc3c(CN(C)C)c(O)ccc3nc2-1 [topotecan, reference compound]
[1]
  IC50: 9.3 nM
[2]; absence of 8C2 or 8C2 scFv
  topotecan concentration at which significant cell death was observed: 2.5 nM

B1: TA2 (protein)
VHH: QVQLQESGGGLVQPGGSLRVSCAASGFTFSSYYMSWVRQAPGKGLEWVSAINTGTGSTYYADSVKGRFTISSDNAKNTVYLQMSSLKPEDTALYYCARSSLEGRVEKPYDYWGQGTQVTVSS
modifications: TA2 clone
[3]
  binding to trastuzumab deruxtecan: concentration-dependent binding

B2: TF7 (protein)
chain: QVQLQESGGGLAQPGGSLRVSCATSGFTFSSNYYISWVRQAPGRGLEWVSAINTGDGSTYYAHSVKGRFTISRDNAKNTLYLQMNSLKPEDTALYYCARSSLEGRIEKPYDYWGQGTQVTVSS
modifications: TF7 clone
[3]
  binding to trastuzumab deruxtecan: concentration-dependent binding

B3: 8C2 scFv (protein)
scFv: EVQLQQSGAELVKPGASVKLSCTASGFNIKDTYIHWVKQRPEQGLEWIGMIDLANDNTKYDPKFQGKATIITDTSSNKAYLQVSSLTSEDTAVYYCATWGAIITLGGWGQGTLVTVSAAKGGGGSGGGGSGGGGSGGGGSDIQMTQSPASLSASVGETVTITCRASGNIHNSLAWYQQIKGRSPQLLVYNAKTLADGVPSRFSGSGSGTQYSLKINSLHPEDFGSYYCQHFWSTPFTFGSGTKLEIKRENLYFQG
modifications: 8C2 scFv
[2]; topotecan with 8C2 mAb or scFv
  effect on topotecan cytotoxicity: right-shifted; also recorded: increased the viability

B4: DT3H3 (protein)
VHH: EVQLVESGGGLVQPGGSLRLSCAASGRTFSHDHMGWFRQAPGKEREFVAAISWTSSTYYGDSVKGRFTISRSNAKNTVYLQMNSLKPEDTAIYYCSWGVGYWGQGTQVTVSS
[4]
  dissociation kinetics: longest dissociation rates; also recorded: longer dissociation rates

B5: CG4: Anti-Calicheamicin sdAb, SEQ ID NO:12 (protein)
VHH: QVQLQESGGGLVQAGGSLRLSCAASGRTISGYAMGWFRQAPGKERDLVAAISRSGTSTYYADSVKGRFTISRDNAKNTVYLQMNSLKPEDTAVYYCNAPGGIWGQGTQVTVSS
modifications: CG4
[5]
  fold inhibition of calicheamicin cytotoxicity (IC50 shift): 6.34 fold
[6]; avidin (biotin-calicheamicin) coated plates, 64 μM CG4
  fold decrease of CG4 binding signal by 10 μM calicheamicin: 2 fold
[6]; avidin coated plates
  actual fold reduction considering background: ~4.3 fold
[6]; cetuximab-calicheamicin ELISA and Dynabeads-calicheamicin
  binding to calicheamicin conjugates vs CG4 concentration: apparent calicheamicin binding with increasing concentration; also recorded: increased with increasing concentration
[6]; cetuximab-calicheamicin coated plates
  actual fold reduction considering background: around 3.3 fold
[7]; rescreen of five colonies
  effect of 1 μM free calicheamicin on clone binding: only clone inhibited; also recorded: loss of binding signal
[7]; single colonies
  binding to dynabeads-calicheamicin: high binding
[8]
  fold change of calicheamicin IC50: 15.4 fold

B6: DT3B3 (protein)
VHH: EVQLVESGGGLVQAGGSLRLSCALSGGTLRSYTMGWIRQAPGKEREFVAGNRWSGGRTYYADSVKGRFTISGDNAENTVYLQMNSLKPEDTAVYYCTADVTEYGEDSSAYWGRGTQVTVSS
modifications: DT3B3
[4]
  dissociation kinetics: longest dissociation rates; also recorded: longer dissociation rates
